± gives the uncertainty stated by the source.
Assay: self-splicing fitness, log relative to wild type (ln ratio); higher = more splicing; Tetrahymena group I intron in knt gene, E. coli kanamycin selection, DiMSum; sequences stand for … in CUCUCU…GGAGGGAAAAGUUAUCAGGCAUGCACCUGGUAGCUAGUCUUUAAACCAAUAGAUUGCAUCGGUUUAAAAGGCAAGACCGUCAAAUUGCGGGAAAGGGGUCAACAGCCGUUCAGUACCAAGUCUCAGGGGAAACUUUGAGAUGGCCUUGCAAAGGGUAUGGUAAUAAGCUGACGGACAUGGUCCUAACCACGCAGCCAAGUCCUAAGUCAACAGAUCUUCUGUUGAUAUGGAUGCAGUUCACAGACUAAAUGUCGGUCGGGGAAGAUGUAUUCUUCUCAUAAGAUAUAGUCGGACCUCUCCUUAAUGGGAGCUAGCGGAUGAAGUGAUGCAACACUGGAGCCGCUGGGAACUAAUUUGUAUGCGAAAGUAUAUUGAUUAGUUUUGGAGUACUCGUGGUCG
How it was run: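 Six replicate transformations of E. coli BL21(DE3) with a pET-22b(+) library were grown overnight at 37°C or 30°C. The library randomised all eight P1ex-region intron nucleotides, the intron lying in the knt kanamycin-resistance gene, and plates were LB agar with or without 25 μg/mL kanamycin plus 100 μg/mL carbenicillin, 50 μM IPTG and 0.2% rhamnose. Pooled colonies were amplicon-sequenced on an Illumina HiSeq 2500, and fitness is the DiMSum error-weighted combination of wild-type-normalised replicate fold changes, kanamycin versus none.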

Sequence	self-splicing fitness (ln) (30 °C)	self-splicing fitness (ln) (37 °C)
UCUAAGCAAUAUUACGGUGU	-1.75 ± 0.083	-1.34 ± 0.093
UCUAAGCAAUAUUACGUCAC	-2.47 ± 0.24	0.446 ± 0.28
UCUAAGCAAUAUUACGUGAA	-1.68 ± 0.088	-0.923 ± 0.099
UCUAAGCAAUAUUACGUUAA	-3.72 ± 0.32	-1.67 ± 0.2
UCUAAGCAAUAUUACGUUAU	-3.25 ± 0.24	-2.31 ± 0.27
UCUAAGCAAUAUUACGUUUC	–	-2.3 ± 0.26
UCUCAGCAAUAUUACGAAUC	-3.99 ± 0.39	-2.58 ± 0.22
UCUCAGCAAUAUUACGACCC	–	-1.98 ± 0.23
UCUCAGCAAUAUUACGACCU	-1.84 ± 0.18	-0.921 ± 0.22
UCUCAGCAAUAUUACGAUAG	-2.43 ± 0.15	-0.737 ± 0.15
UCUCAGCAAUAUUACGAUUA	-0.806 ± 0.11	-0.539 ± 0.12
UCUCAGCAAUAUUACGAUUG	-3.43 ± 0.17	-2.07 ± 0.17
UCUCAGCAAUAUUACGCAGA	-2.73 ± 0.49	–
UCUCAGCAAUAUUACGCAUC	-3.51 ± 0.21	-2.32 ± 0.2
UCUCAGCAAUAUUACGCGCC	-3.46 ± 0.25	-1.25 ± 0.19
UCUCAGCAAUAUUACGGAAG	-1.82 ± 0.18	-2.93 ± 0.3
UCUCAGCAAUAUUACGGAAU	-3.04 ± 0.26	-1.85 ± 0.21
UCUCAGCAAUAUUACGGCUU	-3.42 ± 0.2	-3.05 ± 0.18
UCUCAGCAAUAUUACGGGCC	-2.05 ± 0.2	-1.37 ± 0.27
UCUCAGCAAUAUUACGGGGA	-2.92 ± 0.21	-1.98 ± 0.22
UCUCAGCAAUAUUACGGUAU	-3.7 ± 0.21	-3.05 ± 0.26
UCUCAGCAAUAUUACGUAGA	-0.809 ± 0.091	-0.77 ± 0.13
UCUCAGCAAUAUUACGUAUU	-3.14 ± 0.2	-2 ± 0.16
UCUCAGCAAUAUUACGUCGG	-1.51 ± 0.085	-1.22 ± 0.11
UCUCAGCAAUAUUACGUGAA	-1.14 ± 0.082	0.314 ± 0.1

Sequence	self-splicing fitness (ln) (30 °C)	self-splicing fitness (ln) (37 °C)
UCUCAGCAAUAUUACGUUUC	-4.29 ± 0.42	-1.97 ± 0.34
UCUCAGCAAUAUUACGUUUU	-3.4 ± 0.15	-3.25 ± 0.21
UCUGAGCAAUAUUACGACGA	-0.584 ± 0.11	0.197 ± 0.13
UCUGAGCAAUAUUACGAGUA	-2.16 ± 0.16	-2.17 ± 0.26
UCUGAGCAAUAUUACGAUCU	-3.4 ± 0.35	-2.52 ± 0.21
UCUGAGCAAUAUUACGCCGA	-1.16 ± 0.21	0.184 ± 0.22
UCUGAGCAAUAUUACGCUGC	-2.24 ± 0.37	-1.46 ± 0.34
UCUGAGCAAUAUUACGGCUU	-2.02 ± 0.32	-2.34 ± 0.32
UCUGAGCAAUAUUACGGGUC	-4.32 ± 0.39	-2.38 ± 0.3
UCUGAGCAAUAUUACGGUCA	-2.5 ± 0.29	-1.7 ± 0.29
UCUGAGCAAUAUUACGUACG	–	-2.34 ± 0.35
UCUGAGCAAUAUUACGUCAG	-1.48 ± 0.096	-0.513 ± 0.11
UCUGAGCAAUAUUACGUGAC	-2.99 ± 0.2	-2.97 ± 0.27
UCUGAGCAAUAUUACGUGGA	-2.95 ± 0.29	-1.63 ± 0.18
UCUGAGCAAUAUUACGUGGU	-2.58 ± 0.13	-2.21 ± 0.15
UCUGAGCAAUAUUACGUGUG	-2.15 ± 0.12	-1.51 ± 0.12
UCUGAGCAAUAUUACGUUUU	-4.31 ± 0.29	-3.26 ± 0.28
UCUUAGCAAUAUUACGAAAA	–	-0.128 ± 0.34
UCUUAGCAAUAUUACGAAAG	-2.07 ± 0.35	-1.12 ± 0.34
UCUUAGCAAUAUUACGAACA	-0.762 ± 0.13	-1.04 ± 0.14
UCUUAGCAAUAUUACGACAU	-3.836 ± 0.034	-2.41 ± 0.04
UCUUAGCAAUAUUACGACGA	0.0588 ± 0.29	-1.68 ± 0.22
UCUUAGCAAUAUUACGACUU	-3.52 ± 0.31	-2.47 ± 0.31
UCUUAGCAAUAUUACGAGUU	-2.85 ± 0.16	-0.665 ± 0.15
UCUUAGCAAUAUUACGAUAG	-1.77 ± 0.17	-1.63 ± 0.16

Sequence	self-splicing fitness (ln) (30 °C)	self-splicing fitness (ln) (37 °C)
UCUUAGCAAUAUUACGAUUU	-3.07 ± 0.18	-1.09 ± 0.13
UCUUAGCAAUAUUACGCGUU	-3.83 ± 0.34	-1.75 ± 0.2
UCUUAGCAAUAUUACGCUUA	–	-1.22 ± 0.28
UCUUAGCAAUAUUACGCUUU	–	-2.47 ± 0.32
UCUUAGCAAUAUUACGGAAU	-4.47 ± 0.26	-1.93 ± 0.16
UCUUAGCAAUAUUACGGCCU	-3.85 ± 0.46	–
UCUUAGCAAUAUUACGGCGG	-0.64 ± 0.11	-0.0592 ± 0.13
UCUUAGCAAUAUUACGGGGG	-2.89 ± 0.39	-2.51 ± 0.3
UCUUAGCAAUAUUACGGGGU	-3.44 ± 0.2	-2.39 ± 0.28
UCUUAGCAAUAUUACGGUCA	-1.71 ± 0.16	-0.613 ± 0.16
UCUUAGCAAUAUUACGGUCC	-3.99 ± 0.29	-2.74 ± 0.43
UCUUAGCAAUAUUACGGUGA	-0.481 ± 0.1	0.15 ± 0.1
UCUUAGCAAUAUUACGGUUC	-3.68 ± 0.28	-2.29 ± 0.23
UCUUAGCAAUAUUACGUACC	-1.26 ± 0.48	-1.53 ± 0.41
UCUUAGCAAUAUUACGUACU	-2.72 ± 0.17	-1.66 ± 0.18
UCUUAGCAAUAUUACGUCAC	–	-1.9 ± 0.33
UCUUAGCAAUAUUACGUCCG	-1.41 ± 0.19	-1.59 ± 0.23
UCUUAGCAAUAUUACGUCCU	-1.97 ± 0.28	-2.7 ± 0.38
UCUUAGCAAUAUUACGUUAG	-3.78 ± 0.4	-1.17 ± 0.21
UGAAAGCAAUAUUACGCCUG	-0.546 ± 0.11	-0.244 ± 0.12
UGAAAGCAAUAUUACGCGAA	-1.52 ± 0.17	-1.05 ± 0.2
UGAAAGCAAUAUUACGCGUU	-3.19 ± 0.19	-3.1 ± 0.29
UGAAAGCAAUAUUACGCUGA	-2.09 ± 0.15	-3.15 ± 0.23
UGAAAGCAAUAUUACGCUUU	-4.77 ± 0.28	-2.53 ± 0.26
UGAAAGCAAUAUUACGGAGC	-3.81 ± 0.37	-2.81 ± 0.26

Sequence	self-splicing fitness (ln) (30 °C)	self-splicing fitness (ln) (37 °C)
UGAAAGCAAUAUUACGGAUC	-3.19 ± 0.24	-2.83 ± 0.33
UGAAAGCAAUAUUACGGCCG	-0.266 ± 0.091	0.807 ± 0.15
UGAAAGCAAUAUUACGGGAG	-1.49 ± 0.12	-0.515 ± 0.12
UGAAAGCAAUAUUACGGGUA	-1.01 ± 0.1	-0.387 ± 0.097
UGAAAGCAAUAUUACGGUUG	-1.29 ± 0.079	-0.865 ± 0.091
UGAAAGCAAUAUUACGUAAA	-1.75 ± 0.082	-0.9 ± 0.098
UGAAAGCAAUAUUACGUAUU	-3.21 ± 0.13	-2.19 ± 0.12
UGAAAGCAAUAUUACGUCAC	-3.83 ± 0.47	-2.2 ± 0.27
UGAAAGCAAUAUUACGUCGU	-4.87 ± 0.36	-1.38 ± 0.12
UGAAAGCAAUAUUACGUCUG	-0.102 ± 0.071	0.773 ± 0.09
UGAAAGCAAUAUUACGUUUA	-0.985 ± 0.066	-0.471 ± 0.074
UGAAAGCAAUAUUACGUUUU	-3.67 ± 0.18	-3.41 ± 0.35
UGACAGCAAUAUUACGAAGU	-3.26 ± 0.2	-2.91 ± 0.28
UGACAGCAAUAUUACGACGG	-0.284 ± 0.11	-0.251 ± 0.11
UGACAGCAAUAUUACGAGCU	-2.11 ± 0.083	-1.53 ± 0.083
UGACAGCAAUAUUACGAUAG	-1.49 ± 0.07	-0.347 ± 0.076
UGACAGCAAUAUUACGAUGG	-1.5 ± 0.084	0.221 ± 0.12
UGACAGCAAUAUUACGCAGC	-3.89 ± 0.33	-2.43 ± 0.27
UGACAGCAAUAUUACGCAGG	-3.54 ± 0.35	-1.4 ± 0.2
UGACAGCAAUAUUACGCCUU	-2.19 ± 0.12	-1.15 ± 0.12
UGACAGCAAUAUUACGCGGU	-3.56 ± 0.19	-2.68 ± 0.19
UGACAGCAAUAUUACGCUAU	-3.7 ± 0.2	-1.09 ± 0.1
UGACAGCAAUAUUACGCUGG	-2.21 ± 0.18	-1.92 ± 0.33

Reference: the supplement of paper PMC7877785
